Assay results: the supplement of paper PMC10899765

Columns and labels:
Settings in all cases: 20 nM; 72 h
MCF10A [1] = experiment: percent viability (nuclei count relative to siNT); higher = more viable cells
Experimental: (§1)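 After 72 h, cells were fixed and stained with Hoechst and anti-fibrillarin, and nucleoli per nucleus were counted with CellProfiler. Values are plate-adjusted percent effect for the one-nucleolus and 5+ nucleoli phenotypes, normalised to siNT (0%) and to the positive controls siNOL11 or siKIF11 (100%), as the mean of biological triplicates. Percent viability is the nuclei count relative to siNT.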

MCF10A [2] = experiment: one-nucleolus phenotype percent effect (relative to siNT 0% and siNOL11 100%); higher = more cells with one nucleolus (ribosome biogenesis inhibition)
Experimental: as §1

MCF10A [3] = experiment: 5+ nucleoli phenotype percent effect (relative to siNT 0% and siKIF11 100%); higher = more cells with five or more nucleoli
Experimental: as §1

Row | Sequence | percent viability (MCF10A [1]) | one-nucleolus phenotype percent effect (MCF10A [2]) | 5+ nucleoli phenotype percent effect (MCF10A [3])
1 | AAGCCCUUACCCCAAAAAGUAU [hsa-miR-129-1-3p] | 54.9% | 23.6% | -37.4%
2 | AAGCCUCUGUCCCCACCCCAG [hsa-miR-6819-3p] | 70.8% | -17.6% | -5.25%
3 | AAGCCUGCCCGGCUCCUCGGG [hsa-miR-596] | 74.8% | -4% | -11.4%
4 | AAGCGACCAUGAUGUAACUUCA [hsa-miR-4670-5p] | 49.2% | 14% | -4.37%
5 | AAGCUCAGGUUUGAGAACUGCUGA [hsa-miR-6854-5p] | 57.3% | 18.3% | -24.5%
6 | AAGCUGCCAGUUGAAGAACUGU [hsa-miR-22-3p] | 35.3% | -3.65% | 8.61%
7 | AAGCUUUUUGCUCGAAUUAUGU [hsa-miR-208b-5p] | 108% | -24.2% | -1.23%
8 | AAGGAACCAGAAAAUGAGAAGU [hsa-miR-3914] | 111% | -40.6% | 57.2%
9 | AAGGCAGGGCCCCCGCUCCCC [hsa-miR-940] | 12.8% | 45.5% | -29.5%
10 | AAGGCCCGGGCUUUCCUCCCAG [hsa-miR-4747-3p] | 29.2% | 31.7% | -14.1%
11 | AAGGCCUUUCUGAACCUUCAGA [hsa-miR-3142] | 23.2% | 19.5% | -15%
12 | AAGGGAAGAUGGUGACCAC [hsa-miR-9500] | 26% | 15.1% | -15.3%
13 | AAGGGACAGGGAGGGUCGUGG [hsa-miR-7845-5p] | 60.5% | -13.3% | 2.91%
14 | AAGGGAGGAGGAGCGGAGGGGCCCU [hsa-miR-4739] | 19.6% | 21.1% | 4.78%
15 | AAGGGCUUCCUCUCUGCAGGAC [hsa-miR-3158-3p] | 12.1% | 32.8% | -9.95%
16 | AAGGGGCAGGGACGGGUGGCCC [hsa-miR-6743-5p] | 29.4% | 1.94% | 0.112%
17 | AAGGGGCUGGGGGAGCACA [hsa-miR-6085] | 22% | 33.3% | -17.6%
18 | AAGGGGGAAGGAAACAUGGAGA [hsa-miR-4716-3p] | 21.3% | 21.6% | -6.04%
19 | AAGGUAUUGUUCAGACUUAUGA [hsa-miR-4678] | 38.9% | 5.33% | -18%
20 | AAGGUUUGGAUAGAUGCAAUA [hsa-miR-4464] | 29.7% | 6.58% | -24.5%

Row | Sequence | percent viability (MCF10A [1]) | one-nucleolus phenotype percent effect (MCF10A [2]) | 5+ nucleoli phenotype percent effect (MCF10A [3])
21 | AAGUAGUUGGUUUGUAUGAGAUGGUU [hsa-miR-1244] | 44.6% | 12.3% | -0.297%
22 | AAGUCCCACUAAUGCCAGC [hsa-miR-5588-3p] | 42.5% | 6.67% | -3.98%
23 | AAGUCCUGCUUCUGUUGCAG [hsa-miR-6838-3p] | 56.4% | -6.74% | -28.6%
24 | AAGUGAUCUAAAGGCCUACAU [hsa-miR-1245a] | 48.6% | 10.4% | -34%
25 | AAGUGCCCCCACAGUUUGAGUGC [hsa-miR-371b-3p] | 84.2% | -25.4% | 68.5%
26 | AAGUGCCGCCAUCUUUUGAGUGU [hsa-miR-371a-3p] | 45.8% | -8.12% | -0.0057%
27 | AAGUGCCUCCUUUUAGAGUGUU [hsa-miR-519e-3p] | 40.9% | -10.9% | -1.33%
28 | AAGUGCUGUCAUAGCUGAGGUC [hsa-miR-512-3p] | 69.7% | -17.8% | 45.1%
29 | AAGUGCUUCCUUUUAGAGGGUU [hsa-miR-520f] | 46.9% | 4.79% | 26.9%
30 | AAGUGUGCAGGGCACUGGU [hsa-miR-648] | 20.9% | 40.5% | -33.3%
31 | AAGUUCUGUUAUACACUCAGGC [hsa-miR-148b-5p] | 37.1% | 11.3% | -28.2%
32 | AAGUUGGCUGCAGUUAAGGUGG [hsa-miR-4715-5p] | 22.1% | -2.6% | -13.4%
33 | AAUAAAGUUCAUGUAUGGCAA [hsa-miR-5590-3p] | 61.8% | -1.04% | -19%
34 | AAUAAUACAUGGUUGAUCUUU [hsa-miR-369-3p] | 162% | -9.36% | 11.7%
35 | AAUAAUAUCACAGUAGGUGU [hsa-miR-5692b] | 155% | -19.9% | 46.7%
36 | AAUAAUAUCACAGUAGGUGUAC [hsa-miR-5692c] | 133% | -21.3% | 46%
37 | AAUAGCUCAGAAUGUCAGUUCUG [hsa-miR-7705] | 71.2% | 2.1% | -21.4%
38 | AAUAGGCCACGGAUCUGGGCAA [hsa-miR-1295b-3p] | 13.8% | 28.6% | 4.51%
39 | AAUAUAACACAGAUGGCCUGU [hsa-miR-410] | 164% | -9.74% | 27.3%
40 | AAUAUUAUACAGUCAACCUCU [hsa-miR-656] | 66.6% | 3.93% | 6.28%

Row | Sequence | percent viability (MCF10A [1]) | one-nucleolus phenotype percent effect (MCF10A [2]) | 5+ nucleoli phenotype percent effect (MCF10A [3])
41 | AAUCACUAACCACACGGCCAGG [hsa-miR-34c-3p] | 70.3% | -3.51% | 13.7%
42 | AAUCAGUGAAUGCCUUGAACCU [hsa-miR-5094] | 63.5% | -15% | -13.9%
43 | AAUCAUACACGGUUGACCUAUU [hsa-miR-154-3p] | 67.2% | -0.992% | -5.26%
44 | AAUCAUACAGGGACAUCCAGUU [hsa-miR-487a] | 56% | -6.53% | -7.13%
45 | AAUCAUGUGCAGUGCCAAUAUG [hsa-miR-96-3p] | 28.5% | 1.6% | 24.5%
46 | AAUCAUUCACGGACAACACUU [hsa-miR-382-3p] | 97.5% | -25.4% | 36.3%
47 | AAUCCACGCUGAGCUUGGCAUC [hsa-miR-5092] | 22.3% | 14.7% | -4.16%
48 | AAUCCCAAUGCUAGACCCGGUG [hsa-miR-4733-5p] | 19.5% | 2.5% | 2.55%
49 | AAUCCUUGCUACCUGGGU [hsa-miR-500b] | 32.3% | -0.735% | 12.8%
50 | AAUCCUUGGAACCUAGGUGUGAGU [hsa-miR-362-5p] | 36.6% | -1.23% | -6.28%
51 | AAUCCUUUGUCCCUGGGUGAGA [hsa-miR-501-5p] | 33.2% | 22.1% | -22.9%
52 | AAUCGGACCCAUUUAAACCGGAG [hsa-miR-5188] | 90.7% | -9.59% | 10.2%
53 | AAUCGUACAGGGUCAUCCACUU [hsa-miR-487b] | 59.9% | -10.7% | 24.3%
54 | AAUCUGAGAAGGCGCACAAGGU [hsa-miR-3200-5p] | 32.7% | 2.91% | -28.4%
55 | AAUGACACGAUCACUCCCGUUGA [hsa-miR-425-5p] | 74.9% | -5.83% | 16.6%
56 | AAUGAGAGACCUGUACUGUAU [hsa-miR-4712-3p] | 7.13% | 34.8% | -22.6%
57 | AAUGCACCCGGGCAAGGAUUCU [hsa-miR-501-3p] | 48.2% | 10.8% | -14.1%
58 | AAUGCACCUGGGCAAGGAUUCA [hsa-miR-502-3p] | 38.5% | 0.707% | -10.4%
59 | AAUGGAUUUUUGGAGCAGG [hsa-miR-1246] | 33% | 3.6% | -4.08%
